# Experimental data published in patent US11655307B2, “Anti-doublecortin-like kinase 1 antibodies and methods of use” (The Board of Regents of the University of Oklahoma, priority 2017, dated 2023).
# “Also recorded” adds a separate entry of the source.
# B1: CBT-15G: Anti-DCLK1 mouse monoclonal antibody, Immunoglobulin G213 species, raised against immunogen no. 8; VH SEQ ID NO:24, VL SEQ ID NO:26 (antibody, V domains shown)
# VH: EVQLQQSGTALARPGASVKMSCKASGYSFTSYWMHWVKQRPGQGLEWIGAIYPGKSDTSYNQKFKGKAKLTAVTSASTAYMELSSLTNEDSAVYYCTRYGKGAMDYWGQGTSVTVSS
# VL: DIVLTQSHKFMSTSVGDRVTITCKASQDVNTAVAWYQKKPGQSPKLLIYWASTRLTGVPDRFTGSGSGTDYTLTISSVQAEDLALYYCQQHYSTPYTFGGGTKLEIK
# modifications: HC variable AA sequence of CBT-15G; LC variable AA sequence of CBT-15G
# Key:
# [1] = tested on: Caki-2 cells overexpressing DCLK1; experiment: Proliferation/drug resistance assay (MTT), DCLK1-overexpressing cells; format: cell-based, human; settings: increasing drug concentrations; FIG. 16-17
# From the text: This gBlock also contains a part of human DCLK1 isoform 1 sequence shared with isoform 2, with the addition of the unique DCLK1 isoform 2 C-terminal sequence (NCBI Reference Sequence: XM_005266592.2). The vector containing DCLK1 isoform 1 and the gBlock were digested with EcoRI and Scat Both digested vector and gBlock fragment were gel purified and DCLK1 isoform 2 was constructed by ligating the digested vector with the synthetic DNA fragment. The ligated cDNA product was confirmed by automatic sequencing. […] RCC cell line Caki-2 was infected with Lentivirus containing human DCLK1 cDNA sequence to overexpress DCLK1 Isoform 2/long-α (caki2-dsRed-DCLK1) or red fluorescent protein (RFP) cDNA as control (caki2-dsRed) and selected to 100% expression with puromycin.
# Cells (5000/well) were seeded into a 96-well tissue culture plate in quadruplicate. […] 48 or 72 h after incubation, 10 μL of MTT (RND Systems) was added to each well and cells were incubated at 37° C. for 4 h. […] In order to fully dissolve the precipitated MTT crystals, the plate was placed on a shaker at low speed for 1 min and a microplate reader was used to read the OD570 for each well.
# The high level of expression of vascular endothelial growth factor (VEGF) and its receptors in RCC supports its highly vascular nature making VEGF and its receptors therapeutic targets. […] Given the tight relationship between sternness and the response to targeted therapies and its importance in patient survival, we further investigated DCLK1's role in this process. Caki-2 cells overexpressing DCLK1 were seeded into 96-well plates, allowed to attach overnight, and then treated with increasing concentrations of sunitinib or sorafenib. Relative cell viability was then evaluated by MTT assay.
# The intracellular serine/threonine kinase mTOR is involved in a wide range of pathways and plays an essential role in cellular metabolism and cancer progression.
# [2] = tested on: pancreatic cancer SW1990 tumor xenograft; experiment: SW1990 xenograft tumor study; format: in vivo, mice; settings: 25 mg/kg biweekly
# Procedure: 0.5×10^6 cells were injected into the flanks of 8 week-old athymic nude mice and the resulting tumors were allowed to grow to an average volume 100 mm^3. Upon reaching this volume we began delivering CBT-15 or isotype control mAB at 25 mg/kg biweekly. Tumor volume measurements were taken approximately every other day. At the end of 4 weeks from the start of injections animals were culled and tumors were excised, measured, and weighed.
# [3] = tested on: AsPC-1 pancreatic cancer cells; experiment: In vitro PBMC-killing assay (Caspase-3/7 Glo), pancreatic cancer cells; format: cell-based; settings: 48 h antibody pretreatment, then 72 h co-culture with human PBMC; FIG. 24B
# Procedure: (§1) To further assess the functional relevance of these findings we seeded ACHN renal and AsPC-1 pancreatic cancer cells into 96 wells and subjected them to antibody-dependent cell-mediated cytotoxicity assay. Briefly, 10^4 cancer cells were seeded into each well after 48 hours pretreatment with either isotype control or CBT-15 monoclonal antibody. Human peripheral blood […] were then seeded into each well at 10^5 cells per well and co-cultured for 72 h. After 72 h Caspase-3/7 Glo assay was performed to assess apoptosis.
# [4] = target: T1, DCLK1 isoform 4 purified protein (Homo sapiens, UniProt O15075); experiment: Western blotting against purified DCLK1 protein; format: binding; settings: FIG. 1
# T1 sequence (O15075 1-433 isoform O15075-4): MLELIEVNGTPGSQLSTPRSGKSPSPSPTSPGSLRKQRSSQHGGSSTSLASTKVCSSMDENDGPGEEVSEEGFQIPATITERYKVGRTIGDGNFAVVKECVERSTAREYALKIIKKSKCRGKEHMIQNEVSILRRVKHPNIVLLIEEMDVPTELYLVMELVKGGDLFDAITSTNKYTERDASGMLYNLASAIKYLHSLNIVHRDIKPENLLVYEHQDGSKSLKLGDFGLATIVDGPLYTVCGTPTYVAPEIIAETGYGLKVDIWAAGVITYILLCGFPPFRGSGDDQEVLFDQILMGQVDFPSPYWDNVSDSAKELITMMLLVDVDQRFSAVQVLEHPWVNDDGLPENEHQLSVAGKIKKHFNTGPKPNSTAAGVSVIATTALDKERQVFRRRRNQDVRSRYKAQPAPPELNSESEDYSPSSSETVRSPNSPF
# Procedure: Lysates from ACHN or CAKI2 cells were subjected to Western blot analysis. The concentration of total proteins was determined by BCA protein assay (Pierce, Rockford, Ill.). 40 μg of protein lysates were size separated on a 4%-20% SDS polyacrylamide gel and transferred onto a PVDF membrane. The membrane was blocked in 1% caseine for 30 minutes and probed with primary antibody α-DCLK1 (ABCAM, ab31704), HIF-1α (ABCAM, ab2185), Vimentin (Santa Cruz, S.C.-7557), ALDH1A1 (ABCAM, ab52492), β-Actin (ABCAM, ab8226) overnight at 4° C. The membrane was then washed 3 times with TBST and probed with species-appropriate secondary antibody (cw800-conjugated) for 30 mins at room temperature protected from light. Finally, proteins were detected using a LICOR Odyssey Infrared Imager and density quantification was performed in Image Studio Lite (LICOR) where appropriate.
# The resulting monoclonal antibodies produced from this screening process included an Immunoglobulin A species (CBT-15A) and an Immunoglobulin G213 species (CBT-15G). Following purification of the resulting antibodies, their affinity for DCLK1 was confirmed by Western blotting against DCLK1 isoform 4 purified protein (FIG. 1). […] The ability of these antibodies to bind extracellular DCLK1 was further apparent in FACS sorting experiments. […]
# [5] = tested on: ACHN cells; experiment: In vitro PBMC-killing assay (Caspase-3/7 Glo), renal cancer cells; format: cell-based; settings: antibody pretreatment, then 72 h co-culture with human PBMC; FIG. 24A
# Procedure: ACHN cells were seeded into a 96-well plate at 5×10^4 cells per well and allowed to attach overnight at 37° C. CBT-15 mAB or isotype control mAB were added to the ACHN wells at concentrations of 100 μg/mL in quadruplicate and incubated at 37° C. for 72 h. After mAB treatment, the media was replaced and 1.25×10^5 primary human PBMC cells (ATCC) were co-incubated with the ACHN cells for 72 h. Finally, luminescent CaspaseGlo® 3/7 activity (Promega) assay was performed according to the manufacturer's protocol as a surrogate measure of apoptosis.
# as §1
molecule,measurement,setting,value
CO[C@H]1C[C@@H]2CC[C@@H](C)[C@@](O)(O2)C(=O)C(=O)N2CCCC[C@H]2C(=O)O[C@H]([C@H](C)C[C@@H]2CC[C@@H](OC(=O)C(C)(CO)CO)[C@H](OC)C2)CC(=O)[C@H](C)/C=C(\C)[C@@H](O)[C@@H](OC)C(=O)[C@H](C)C[C@H](C)/C=C/C=C/C=C/1C [temsirolimus],"sensitivity of DCLK1-overexpressing cells to the drug compared to dsRed vector control cells (relative cell viability, MTT)",[1],significantly decreases sensitivity
CO[C@H]1C[C@@H]2CC[C@@H](C)[C@@](O)(O2)C(=O)C(=O)N2CCCC[C@H]2C(=O)O[C@H]([C@H](C)C[C@@H]2CC[C@@H](OCCO)[C@H](OC)C2)CC(=O)[C@H](C)/C=C(\C)[C@@H](O)[C@@H](OC)C(=O)[C@H](C)C[C@H](C)/C=C/C=C/C=C/1C [everolimus],"sensitivity of DCLK1-overexpressing cells to the drug compared to dsRed vector control cells (relative cell viability, MTT)",[1],significantly decreases sensitivity
CNC(=O)c1cc(Oc2ccc(NC(=O)Nc3ccc(Cl)c(C(F)(F)F)c3)cc2)ccn1 [sorafenib],"sensitivity of DCLK1-overexpressing cells to the drug compared to dsRed vector control cells (relative cell viability, MTT)",[1],did not elicit significant resistance; also recorded: not resistant
B1,excised tumor volume vs isotype mAB,"[2]; end of treatment, FIG. 29, 32",significant decrease
same,excised tumor weight vs isotype mAB,"[2]; end of treatment, FIG. 30, 33",decrease
same,xenograft tumor growth (tumor volume over time) vs isotype mAB,"[2]; athymic nude mice, 4 weeks, FIG. 28, 31, 25 mg/kg",strongly inhibited; also recorded: substantially reduced
same,"immune cell mediated cell killing, Caspase-3/7 activity relative to isotype control",[3],significantly increased; also recorded: increase
same,affinity for DCLK1 by Western blot (detection of purified DCLK1 protein),[4],confirmed; also recorded: detect
same,"PBMC mediated apoptosis, Caspase-3/7 activity relative to isotype control",[5],can sensitize
